Reference: US20150071907A1 (published 2015)

Target: T1, human macrophage mannose receptor (MMR) (human, UniProt P22897 19-1456)
T1 sequence (looked up): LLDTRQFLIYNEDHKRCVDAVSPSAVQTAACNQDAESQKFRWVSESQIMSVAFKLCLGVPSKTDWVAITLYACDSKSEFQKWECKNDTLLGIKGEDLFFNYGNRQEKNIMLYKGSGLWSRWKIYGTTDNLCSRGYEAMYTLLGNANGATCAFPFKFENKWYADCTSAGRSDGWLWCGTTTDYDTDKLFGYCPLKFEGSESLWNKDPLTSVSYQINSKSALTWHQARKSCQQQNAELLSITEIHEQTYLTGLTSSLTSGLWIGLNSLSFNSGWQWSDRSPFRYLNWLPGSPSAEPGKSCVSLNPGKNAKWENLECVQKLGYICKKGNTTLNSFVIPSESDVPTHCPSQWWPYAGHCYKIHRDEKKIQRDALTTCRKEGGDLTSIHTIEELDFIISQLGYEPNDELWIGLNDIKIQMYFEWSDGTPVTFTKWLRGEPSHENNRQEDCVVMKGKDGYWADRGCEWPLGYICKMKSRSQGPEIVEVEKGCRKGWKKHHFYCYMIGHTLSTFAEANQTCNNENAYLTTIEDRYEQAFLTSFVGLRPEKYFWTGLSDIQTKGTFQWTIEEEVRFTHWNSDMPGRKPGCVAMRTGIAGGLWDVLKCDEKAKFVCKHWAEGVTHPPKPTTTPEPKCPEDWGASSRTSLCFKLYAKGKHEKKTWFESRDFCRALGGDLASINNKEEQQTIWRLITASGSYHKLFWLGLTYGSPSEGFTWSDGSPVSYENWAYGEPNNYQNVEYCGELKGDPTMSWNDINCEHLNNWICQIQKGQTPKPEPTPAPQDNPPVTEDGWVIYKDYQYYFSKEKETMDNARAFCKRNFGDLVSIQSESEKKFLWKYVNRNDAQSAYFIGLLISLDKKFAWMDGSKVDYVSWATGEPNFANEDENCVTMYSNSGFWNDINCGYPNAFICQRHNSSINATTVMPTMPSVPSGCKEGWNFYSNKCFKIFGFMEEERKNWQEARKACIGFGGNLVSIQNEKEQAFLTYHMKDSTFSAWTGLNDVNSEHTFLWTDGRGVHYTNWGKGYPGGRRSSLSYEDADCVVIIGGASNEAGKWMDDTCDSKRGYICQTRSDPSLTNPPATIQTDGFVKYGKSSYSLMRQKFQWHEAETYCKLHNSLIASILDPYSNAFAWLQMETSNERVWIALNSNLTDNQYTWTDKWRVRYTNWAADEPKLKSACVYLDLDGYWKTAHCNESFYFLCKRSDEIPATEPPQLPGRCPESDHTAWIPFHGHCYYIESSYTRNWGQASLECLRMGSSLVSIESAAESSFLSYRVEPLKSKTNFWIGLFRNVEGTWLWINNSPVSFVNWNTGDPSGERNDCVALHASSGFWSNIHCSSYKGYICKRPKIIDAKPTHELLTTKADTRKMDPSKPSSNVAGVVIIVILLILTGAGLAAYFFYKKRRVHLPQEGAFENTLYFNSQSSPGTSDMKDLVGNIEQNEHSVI
Assay: cell-based or functional assay

B1: velaglucerase alfa (enzyme, human, UniProt P04062 40-536, looked up)
chain: ARPCIPKSFGYSSVVCVCNATYCDSFDPPTFPALGTFSRYESTRSGRRMELSMGPIQANHTGTGLLLTLQPEQKFQKVKGFGGAMTDAAALNILALSPPAQNLLLKSYFSEEGIGYNIIRVPMASCDFSIRTYTYADTPDDFQLHNFSLPEEDTKLKIPLIHRALQLAQRPVSLLASPWTSPTWLKTNGAVNGKGSLKGQPGDIYHQTWARYFVKFLDAYAEHKLQFWAVTAENEPSAGLLSGYPFQCLGFTPEHQRDFIARDLGPTLANSTHHNVRLLMLDDQRLLLPHWAKVVLTDPEAAKYVHGIAVHWYLDFLAPAKATLGETHRLFPNTMLFASEACVGSKFWEQSVRLGSWDRGMQYSHSIITNLLYHVVGWTDWNLALNPEGGPNWVRNFVDSPIIVDITKDTFYKQPMFYHLGHFSKFIPEGSQRVGLVASQKNDLDAVALMHPDGSAVVVVLNRSSKDVPLTIKDPAVGFLETISPGYSIHTYLWRRQ
modifications: primarily high-mannose type N-glycans (6-9 mannose units per glycan) at Asn19, Asn59, Asn146, Asn270
  internalization rate in U937 cells relative to imiglucerase (4-MU-glc activity assay): ≤ 2.5 fold
